# Data reported in US11994512B2, “Single-cell genomic methods to generate ex vivo cell systems that recapitulate in vivo biology with improved fidelity” (Massachusetts Institute of Technology, priority 2018, dated 2024).
# Test system: intracellular proteome of ENR+CD and ENR organoids
# Assay: LC-MS/MS TMT proteomics of ENR+CD versus ENR organoids
# Format: cell-based, C57BL/6 mice
# Details: for Average logFC: ENR+CD versus ENR organoids, sample pairs in aggregate (n=4, 2 technical replicates from two biological donors); for M1-1 Log2 Median Normalized / M1-2 Log2 Median Normalized / M2-1 Log2 Median Normalized / M2-2 Log2 Median Normalized: protein abundance ratio ENR+CD versus ENR organoids, LC-MS/MS TMT proteomics; for M1-1 Log2 Median Normalized: sample pair M1-1; for M1-2 Log2 Median Normalized: sample pair M1-2; for M2-1 Log2 Median Normalized: sample pair M2-1; for M2-2 Log2 Median Normalized: sample pair M2-2; for change: up = enriched in ENR+CD, down = enriched in ENR, FDR<0.05 and log fold change cut-off
Molecule,Average logFC,M1-1 Log2 Median Normalized,M1-2 Log2 Median Normalized,M2-1 Log2 Median Normalized,M2-2 Log2 Median Normalized,change
"Q9CZT6 (protein, UniProt Q9CZT6 1-276, looked up, full-length) MADDLGDEWWENQPAAASSPEQSGGEEGGDTEMTQQDTAPVPEKTQQPTECFLTQTKEPKAEDSRKTRKWKKKKISDILAKSEPKPGTPEDLQKLIRDHYSSSRSVIELEELHLPDSCFLKANDLTHSLSSYLKEICPKWVKLRKTHNEKKSVLMLILCSSAVRALELIRSLTAFKGDAKVMKLFAKHIKVQEQVKLLEKRVIHLGVGTPGRIKELVKQDGLHLNPLKFLVFDWNWRDQKLRRMMDIPEIRKEVFELLDMGVFSLCKSDSLKLGLF",−1.131,−1.275,−0.965,−0.8705,−1.413,down
"Q9CQU5 (protein, UniProt Q9CQU5 1-252, looked up, full-length) MADAEKNAVAEKNNAVATKEVLAEAAAILEPVGLQEEAELPAKIMEEFMRNSRKKDKLLCSQLQVVNFLQTFLAQEDTEQSPDALASEDASRQKATETKEQWKDMKATYMDHVDVIKCALSEALPQVKEAHRKYTELQKAFEQLEAKKRVLEEKLQLAQKQWVLQQKRLQNLTKISAEVKRRRKRALEKLDGSHQELETLKQQAGQEQEKLQRNQSYLQLLCSLQNKLVISEGKAEDKDVKGRALTAKSKSP",−1.13,−1.159,−0.699,−1.1625,−1.13,down
"Q9CWY4 (protein, UniProt Q9CWY4 1-129, looked up, full-length) MQSPLTIPVPVPVLRLPRGPDGFSRGFASDGRRTILRPEVGEGHIQDPPESQEQRARATLRERYLRSLLAMVGHPVSFTLHEGVHVTAQFGATDLDVANFYVSQLQTPIGVQAEALLRCSDIISYSFKL",−1.168,−0.742,−0.855,−1.6895,−1.387,down
"Q99PG0 (protein, UniProt Q99PG0 1-398, looked up, full-length) MGKTISLLISVVLVAYYLYIPLPDAIEEPWKVVWETAFVKIGTDLASFGELLGISHFMETIQLLMSFQEVPPTSDEHVTVMETAFDSVPVRIYIPKRKSMALRRGLFYIHGGGWCLGSAAHFSYDTLSRWTAHKLDAVVVSTDYGLAPKHHFPRQFEDVYRSLRWFLQEDVLEKYGVDPRRVGVSGDSAGGNLAAAVTQQLIQDPDVKIKLKVQALIYPALQALDTNVPSQQEGSHFPVLTRSLMVRFWSEYFTTDRGLEKAMLLNQHVPMESSHLLQFVNWSSLLPERYKKSPVYKNPTPGSSELAQKYPGFIDVKACPLLANDNILHHLPKTYIITCQYDVLRDDGLMYVKRLQNVGVHVTHHHVEDGFHGTFSFPGLKLSERMKNQYLSWLIKNL",,−1.606,−1.392,−2.1105,−1.558,down
"Q9CXS4 (protein, UniProt Q9CXS4 1-252, looked up, full-length) MRRTRSAVATGPREQRRSGATGGLSGGESRAQRSRSRTRAGAGGGGGAVGPQPSAKPRPKPPPRAQEAAAEEPPPAVTPAASVSALDLGEQRERWETFQKRQRLSFEGAAKLLLDTFEYQGLVKHTGGCHCGAVRFEVWASADLHIFDCNCSICKKKQNRHFIVPASRFKLLKGAESITTYTFNTHKAQHTFCKRCGVQSFYTPRSNPGGFGIAPHCLDEGTVRSVVTEEFNGSDWERAMKEHKTIKNMSKE",−1.1404,−1.106,−1.141,−0.9445,−1.649,down
"Q9CXC3 (protein, UniProt Q9CXC3 1-338, looked up, full-length) MKLPLTFCRLLSRLNRFSVKASPPVSFSTFSYLCSQKKKNSYEAVDQAKYSRLVRSVLSRGPAQTPESLFKEDDVLYGPVSKHKAAEPEPQARVPQHCFPIFNEERTGKPHTDASSSPLKIPLQRNSIPSVTRILQQTMPPEQSFFLERWKERMVLELGEDGFAEYTSNVFLQGKQFHKALESILSPQENLTGGEEHPQCGYIESIQHILTEISGVQALESAVQHEALKYVGLLDCVAEYRGKLCVIDWKTSEKPKPLIRNTYDNPLQVVAYMGAVNHDAHYSFQVQCGLIVVAYKDGSPAHPHFMDEELCSKYWAKWLLRLEEYTEKQKNLSAPEPA",−1.487,−1.486,−0.854,−1.7905,−1.7,down
"Q9CPY1 (protein, UniProt Q9CPY1 1-128, looked up, full-length) MAGSVPWAASRRLWGWVPSACRSFSLGVPRLAFVRLTLPPPKVVDRWNEKRALFGVYDNIGILGNFEKHPKELIKGPVWLRGWRGNELQRCVRKKKFVGNRMFIEDLHNLNKRISYLYKHFNRHGKYR",−1.278,−0.801,−0.766,−2.0015,−1.543,down
"Q99M01 (protein, UniProt Q99M01 1-451, looked up, full-length) MVCLALVRAAYEHIYLVRKVSHACRCHQHRAWSSKPAASQSAVQGAPGSVLEILGKSYPQDDHTNLTQKVLSKVGRNLHNQKFHPLWLIKERVKEHFYQQYMVRSRTPLFSVYDQLPPVVTTWQNFDSLLIPADHPSRKKGDNYYLNRAHMLRAHTSAHQWDLLHAGLNAFLVVGDVYRRDQIDCQHYPVFHQLEGVRLFSKHELFAGVKDGESLQLFEEGSRSAHKQETHTMEAVKLVEFDLKQVLTRLVTHLFGDGLEVRWVDCYFPFTHPSFEMEINFRGEWLEVLGCGVMEQQLVNSAGAQDRIGWAFGLGLERLAMVLYDIPDIRLFWSEDERFLKQFLLSDINQSVKFQPLSKYPAVFNDISFWLPSENYTENDFYDIVRTVGGDLVEKVDLIDKFEHPKTHRTSHCYRITYRHMERTLSQREVGNVHQAVQEAAVQLLGVEGRF",−1.171,−0.869,−0.578,−1.7495,−1.486,down
"Q99M54 (protein, UniProt Q99M54 1-266, looked up, full-length) MGSTQSVSGTPARPLPRNKQVARVADPRSPSAGIQRTPIQVESSPQPSLPAEQLNGLKQAQDPDPRSPTLGIARTPMKISGPDPQCSLVKELSEVLETEASESISSPELALPRETPLFYDLDLSSDPQLSPEDQLLPWSQAELDPKQVFTKEEAKQSAETIAASQNSDKPSRDPETPQSSGSKRSRRKANSKVLGRSPLTILQDDNSPGTLTLRQGKRPSALSENVKDLKEGVVLGTGRFLKAGGGAREPNQDHDKENQHFALLES",,−1.383,−1.488,−0.4185,−1.548,down
"Q9CVI2 (protein, UniProt Q9CVI2 1-245, looked up, full-length) MGKRDNRVAYMNPIAMARSRGPIQSSGPTIQDYLNRPRPTWEEVKEQLEKKKKGSKALAEFEEKMNENWKKELEKHREKLLSGNESSSKKRQKKKKEKKKSGRYSSSSSSSSDSSSSSSDSEDEDKKQTKRRKKKKSRCHKSPESSGSDSASDSKDGSKKKKKSKDVTEREKDTKGLSKKRKMYEDKPLSSESLSESDCGEVQAKRKKSGEERERTTDKAKKRRKHKKHSKKKKKKAASSSSDSP",−1.186,−1.385,−1.072,−1.0115,−1.275,down
